The values below come from article PMC10085679, “Filament assembly underpins the double-stranded DNA specificity of AIM2-like receptors”.

The term Kd denotes the constant that tells how readily two partners part at equilibrium. As a reminder, the IC50 is the concentration that inhibits the measured activity by half.

Data set [1] addresses T1, AIM2HIN (Homo sapiens, UniProt O14862 144-343).
T1 sequence: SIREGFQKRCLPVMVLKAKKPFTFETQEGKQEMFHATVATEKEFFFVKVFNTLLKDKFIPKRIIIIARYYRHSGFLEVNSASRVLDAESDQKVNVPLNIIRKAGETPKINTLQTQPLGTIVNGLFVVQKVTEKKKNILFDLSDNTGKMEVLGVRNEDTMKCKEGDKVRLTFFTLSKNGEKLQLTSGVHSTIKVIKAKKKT
Nature of the data set: fluorescence anisotropy; 160 mM KCl; 60 mM KCl for IFI16HinAB; FAM probe 3-6 nM (FA) or 20 nM (EMSA); binding buffer pH and temperature not in the material. The following applies: protein: recombinant.

For data set [2], the target named is T2, AIM2FL (Homo sapiens, UniProt O14862 1-343).
T2 sequence: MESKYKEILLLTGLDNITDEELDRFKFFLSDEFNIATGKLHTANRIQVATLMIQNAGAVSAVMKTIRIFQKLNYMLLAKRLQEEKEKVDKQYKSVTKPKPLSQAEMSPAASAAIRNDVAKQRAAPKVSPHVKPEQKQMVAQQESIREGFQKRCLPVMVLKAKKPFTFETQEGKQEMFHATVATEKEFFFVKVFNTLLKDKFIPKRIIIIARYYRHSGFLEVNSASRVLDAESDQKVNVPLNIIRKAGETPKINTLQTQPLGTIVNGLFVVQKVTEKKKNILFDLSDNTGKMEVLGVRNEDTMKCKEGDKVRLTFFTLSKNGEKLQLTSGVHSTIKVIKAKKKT
The description is as above. The following applies: protein: recombinant.

The target in data set [3] is T3, IFI16FL (Homo sapiens, UniProt Q16666-2 1-729). The description is as above. Particulars: protein: recombinant; tags: C-terminal His6.
The target of data set [4] is T4, IFI16HinAB (Homo sapiens, UniProt Q16666-2 159-729). Nature of the data set: competition fluorescence anisotropy; unlabelled competitor against 6 nM 60-bp FAM-dsDNA, 400 nM protein; 160 mM KCl (60 mM KCl for IFI16HinAB); buffer, pH and temperature not given in the available text. The following applies: protein: recombinant. For orientation: Polarisation of emitted light reports the rotation of a fluorescent probe.

Data set [5] addresses T1, AIM2HIN. The data set can be described thus: competition fluorescence anisotropy; unlabelled competitor against 6 nM 24-bp FAM-dsDNA, 625 nM protein; 160 mM KCl (60 mM KCl for IFI16HinAB); buffer, pH and temperature not given in the available text. The following applies: protein: recombinant.
The target in data set [6] is T4, IFI16HinAB. Nature of the data set: fluorescence anisotropy; 60 mM KCl; 160 mM KCl; 60 mM KCl for IFI16HinAB; FAM probe 3-6 nM (FA) or 20 nM (EMSA); binding buffer pH and temperature not in the material. The following applies: protein: recombinant.
In data set [7] the target is T1, AIM2HIN. Nature of the data set: fluorescence anisotropy; 160 mM KCl (60 mM KCl for IFI16HinAB); buffer, pH and temperature not given in the available text. Particulars: protein: recombinant.
The target in data set [8] is T2, AIM2FL. The description is as above. The following applies: protein: recombinant.
The target of data set [9] is T2, AIM2FL. The data set can be described thus: competition fluorescence anisotropy; unlabelled competitor against 6 nM 24-bp FAM-dsDNA, 100 nM protein; 160 mM KCl (60 mM KCl for IFI16HinAB); buffer, pH and temperature not given in the available text. The following applies: protein: recombinant.
The target of data set [10] is T1, AIM2HIN. The data set can be described thus: competition fluorescence anisotropy; unlabelled competitor against 6 nM 60-bp FAM-dsDNA, 400 nM protein; 160 mM KCl (60 mM KCl for IFI16HinAB); buffer, pH and temperature not given in the available text. Particulars: protein: recombinant.
For data set [11], the target named is T2, AIM2FL. Nature of the data set: competition fluorescence anisotropy; unlabelled competitor against 6 nM 60-bp FAM-dsDNA, 60 nM protein; 160 mM KCl (60 mM KCl for IFI16HinAB); buffer, pH and temperature not given in the available text. The following applies: protein: recombinant.
Data set [12] concerns the target T3, IFI16FL. Nature of the data set: competition fluorescence anisotropy; unlabelled competitor against 6 nM 60-bp FAM-dsDNA, 100 nM protein; 160 mM KCl (60 mM KCl for IFI16HinAB); buffer, pH and temperature not given in the available text. The following applies: protein: recombinant, tags: C-terminal His6.
For data set [13], the target named is T4, IFI16HinAB. Nature of the data set: competition fluorescence anisotropy; unlabelled competitor against 6 nM 24-bp FAM-dsDNA, 1000 nM protein; 160 mM KCl (60 mM KCl for IFI16HinAB); buffer, pH and temperature not given in the available text. Particulars: protein: recombinant.
Data set [14] has as its target T2, AIM2FL. Nature of the data set: fluorescence anisotropy; upper-limit estimate; 160 mM KCl; 60 mM KCl for IFI16HinAB; FAM probe 3-6 nM (FA) or 20 nM (EMSA); binding buffer pH and temperature not in the material. Particulars: protein: recombinant.
The target of data set [15] is T4, IFI16HinAB. Nature of the data set: fluorescence anisotropy; 160 mM KCl (60 mM KCl for IFI16HinAB); buffer, pH and temperature not given in the available text. The following applies: protein: recombinant.
The target of data set [16] is T3, IFI16FL. The data set can be described thus: competition fluorescence anisotropy; unlabelled competitor against 6 nM 24-bp FAM-dsDNA, 500 nM protein; 160 mM KCl (60 mM KCl for IFI16HinAB); buffer, pH and temperature not given in the available text. The following applies: protein: recombinant, tags: C-terminal His6.
Data set [17] addresses T3, IFI16FL. Nature of the data set: fluorescence anisotropy; printed 0.003*, upper-limit estimate; 160 mM KCl; 60 mM KCl for IFI16HinAB; FAM probe 3-6 nM (FA) or 20 nM (EMSA); binding buffer pH and temperature not in the material. Particulars: protein: recombinant; tags: C-terminal His6.
The target in data set [18] is T3, IFI16FL. The data set can be described thus: competition; last row of Table S10, presumably against 60-bp FAM-dsDNA; 160 mM KCl; 60 mM KCl for IFI16HinAB; FAM probe 3-6 nM (FA) or 20 nM (EMSA); binding buffer pH and temperature not in the material. The following applies: protein: recombinant; tags: C-terminal His6. In general terms: A gel shift assay detects complexes by their altered migration in electrophoresis.

The target of data set [19] is T3, IFI16FL. The data set can be described thus: fluorescence anisotropy; 160 mM KCl (60 mM KCl for IFI16HinAB); buffer, pH and temperature not given in the available text. The following applies: protein: recombinant; tags: C-terminal His6.

T3 sequence (Q16666 other isoform, or with tags, fused parts or gaps): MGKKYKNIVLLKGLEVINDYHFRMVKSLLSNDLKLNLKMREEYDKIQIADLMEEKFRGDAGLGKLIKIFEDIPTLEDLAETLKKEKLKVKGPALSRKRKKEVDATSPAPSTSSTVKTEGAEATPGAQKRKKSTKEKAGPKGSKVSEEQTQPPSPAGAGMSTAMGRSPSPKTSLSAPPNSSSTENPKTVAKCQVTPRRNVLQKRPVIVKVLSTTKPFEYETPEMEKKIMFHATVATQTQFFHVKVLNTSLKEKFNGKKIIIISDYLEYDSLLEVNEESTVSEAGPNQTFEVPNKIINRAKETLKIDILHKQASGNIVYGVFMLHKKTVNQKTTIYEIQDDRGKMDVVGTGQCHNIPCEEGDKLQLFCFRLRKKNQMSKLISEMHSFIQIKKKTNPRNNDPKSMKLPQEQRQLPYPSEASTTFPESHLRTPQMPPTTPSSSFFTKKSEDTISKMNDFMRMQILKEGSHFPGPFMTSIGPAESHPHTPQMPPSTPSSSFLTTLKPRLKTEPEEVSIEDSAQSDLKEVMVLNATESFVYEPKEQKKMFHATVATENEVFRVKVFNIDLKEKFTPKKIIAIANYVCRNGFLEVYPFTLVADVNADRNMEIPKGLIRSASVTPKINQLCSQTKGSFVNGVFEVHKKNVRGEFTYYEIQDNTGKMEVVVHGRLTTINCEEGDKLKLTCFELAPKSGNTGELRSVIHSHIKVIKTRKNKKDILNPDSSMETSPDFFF
T4 sequence (Q16666 other isoform, or with tags, fused parts or gaps): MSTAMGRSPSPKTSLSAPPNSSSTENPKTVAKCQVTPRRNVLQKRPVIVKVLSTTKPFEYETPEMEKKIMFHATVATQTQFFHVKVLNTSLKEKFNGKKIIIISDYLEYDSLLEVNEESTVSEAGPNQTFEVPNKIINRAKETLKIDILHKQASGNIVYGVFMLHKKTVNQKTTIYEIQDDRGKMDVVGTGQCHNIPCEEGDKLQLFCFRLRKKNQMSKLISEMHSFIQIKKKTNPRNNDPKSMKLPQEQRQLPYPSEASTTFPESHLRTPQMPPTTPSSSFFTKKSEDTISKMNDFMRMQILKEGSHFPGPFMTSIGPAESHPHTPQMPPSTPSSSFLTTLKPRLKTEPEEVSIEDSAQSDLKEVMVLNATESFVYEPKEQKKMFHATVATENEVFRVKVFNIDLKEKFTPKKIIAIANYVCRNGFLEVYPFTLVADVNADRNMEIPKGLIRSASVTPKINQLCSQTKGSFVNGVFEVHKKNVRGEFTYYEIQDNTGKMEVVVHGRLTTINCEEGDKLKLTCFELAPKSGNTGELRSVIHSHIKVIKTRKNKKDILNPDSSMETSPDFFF

B1: 60-base ssDNA_A (ssDNA)
DNA: AAAGAAAGAAAGAAAGAAAGAAAGAAAGAAAGAAAGAAAGAAAGAAAGAAAGAAAGAAAG
Regarding B1, the dissociation constant Kd was 2700 ± 100 nM with AIM2HIN [1]; 150 ± 30 nM in the data set with AIM2FL [2]; 150 ± 20 nM with IFI16FL [3]; 500 ± 200 nM with IFI16HinAB [6]; 2700 ± 100 nM with AIM2HIN [7]; 150 ± 30 nM in the data set with AIM2FL [8]. The half-inhibitory concentration (IC50) stood at 3010 nM with IFI16HinAB [4], 134 ± 16.6 nM with AIM2HIN [5] and 58.9 ± 6.7 nM in the data set with AIM2FL [9].

B2: 60-base ssRNA_A (ssRNA)
RNA: B1 DNA
On to B2, for which the results for the dissociation constant Kd with AIM2FL [2], with AIM2HIN [7] and with AIM2FL [8] were 400 ± 100 nM, 1400 ± 200 nM and 400 ± 100 nM, respectively. The IC50 was 1230 ± 483 nM with AIM2HIN [10]; 1970 ± 90 nM with IFI16HinAB [4]; 132.8 ± 0.4 nM with AIM2HIN [5]; 1020 ± 130 nM with AIM2FL [11]; 46.1 ± 2.7 nM with AIM2FL [9]; 166 ± 18 nM with IFI16FL [12].

B3: 60-bp dsDNA (dsDNA)
DNA 1: TAAGACACGATGCGATAAAATCTGTTTGTAAAATTTATTAAGGGTACAAATTGCCCTAGC
DNA 2: GCTAGGGCAATTTGTACCCTTAATAAATTTTACAAACAGATTTTATCGCATCGTGTCTTA
For B3, the IC50 with IFI16HinAB [13] was determined as 289 ± 37.3 nM; with AIM2HIN [10], 268 ± 8.4 nM; with IFI16HinAB [4], 258 ± 24.9 nM; with AIM2HIN [5], 19.7 ± 1.9 nM; with AIM2FL [11] it was 142 ± 8.5 nM; with AIM2FL [9], 11.8 ± 0.3 nM. For the same molecule, the IC50 was found to be 331 ± 29.8 nM with IFI16FL [16] (chain copies: 4) and 627 ± 132 nM with IFI16FL [12] (chain copies: 4). The Kd in the data set with AIM2FL [14] is less than 3 nM; in the data set with AIM2HIN [7] it was 600 ± 100 nM; with IFI16HinAB [15], 20 ± 10 nM; with IFI16FL [17] it was less than 3 nM.

B4: 60-bp DNA:RNA hybrid (DNA:RNA)
DNA: B3 DNA 1
RNA: GCUAGGGCAAUUUGUACCCUUAAUAAAUUUUACAAACAGAUUUUAUCGCAUCGUGUCUUA
With B4, the Kd came out at 40 ± 10 nM in the data set with AIM2FL [2]; 800 ± 100 nM in the data set with AIM2HIN [7]; 40 ± 10 nM with AIM2FL [8]; 60 ± 10 nM in the data set with IFI16HinAB [15]; 35 ± 15 nM with IFI16FL [19]. Besides, the IC50 in the data set with IFI16HinAB [13] stood at 663 ± 64.6 nM; with AIM2HIN [10], 350 ± 44 nM; with IFI16HinAB [4], 623 ± 106 nM; in the data set with AIM2HIN [5] it was 100 ± 9 nM; with IFI16FL [18], 975 ± 48.1 nM; with AIM2FL [9], 19.6 ± 0.44 nM. Further, in the data set with IFI16FL [16], the IC50 is 239 ± 31.9 nM.
